Test results taken from patent US12297265B2, “Antibody and use thereof” (SICHUAN KELUN-BIOTECH BIOPHARMACEUTICAL CO., LTD., priority 2018, dated 2025).
Changes are numbered by the printed parent chain. Blank lines part the entries; values can stand above or below the molecule they belong to.

Tests used:
[1] = target: T1, human Claudin18.2 (Homo sapiens, UniProt P56856); test: FACS affinity of mouse anti-human Claudin18.2 antibodies to Ba/F3-Claudin 18.2 cells; type: binding; design: expressed in transfected cells; host or cells: Ba/F3 (BaF/3, DSMZ ACC300), hygromycin-selected monoclonal line
Experimental: The affinity of the candidates to Claudin18.2 was measured using FACS. Single hybridoma clone 1E9.2, 2C6.9, 6B9.22, 9C8.1, 16A9.11, 19G10.14 and 19H11.6 were cultured in serum-free medium and mouse antibodies were purified from 100 mL supernatant by protein A chromatography (MabSelect SuRe, GE). Ba/F3-Claudin18.1 and Ba/F3-Claudin18.2 cells were incubated with the purified mouse antibodies at various concentrations on ice for 30 min and mouse IgG was used as negative control (Thermo Fisher, Cat: 31903), followed by washing with FACS buffer (PBS+2% FBS) twice. The cells were then incubated with a fluorescent goat-anti-mouse secondary antibody (Jackson ImmunoResearch, Cat: 115-605-071) on ice for 30 min before FACS analysis.

[2] = target: T1, human Claudin18.2; test: Affinity of chimeric and humanized antibodies to Ba/F3-Claudin 18.2 cells (IntelliCyt); type: binding; design: expressed in transfected cells; host or cells: Ba/F3 (BaF/3, DSMZ ACC300), hygromycin-selected monoclonal line
From the text: In order to evaluate the anti-Claudin18.2 humanized antibodies, codon optimized cDNAs of the heavy chains and the light chains of the candidate humanized antibodies from Example 6 were synthesized and ligated into pcDNA3.4 (by Nanjing Genscript Biotech Corporation). Expi293F cells (purchased from Thermo Incorporation) were co-transfected with pcDNA3.4 coding the heavy chain and light chain of each antibody. The antibodies were purified from the supernatant using protein A (MabSelect SuRe, GE). The affinity of the humanized antibodies to Claudin18.2 was determined using Ba/F3-Claudin18.2 cells which over-expressed human Claudin18.2. Ba/F3-Claudin18.2 cells (60000 in 10 ul buffer) were incubated with purified humanized antibodies on ice for 30 min, followed by washing with buffer (PBS+2% FBS) twice and addition of Alexa647-labeled goat-anti-human IgG Fc antibody (1:500 dilution). The cells were incubated on ice for another 30 min and analyzed by IntelliCyt.

B2: 1E9.2-hz41: humanized antibody of 1E9.2; VH SEQ ID NO: 32, VL SEQ ID NO: 33 (antibody, V domains shown)
VH: EVQLVESGGGLVKPGGSLRLSCAASGFSFSNSAMSWVRQAPGKGLEGVATISSGDSYTYYPDSVKGRFTISRDNAKNSLYLQMNSLRAEDTAVYYCARQGYGNALDYWGQGTLVTVSS
VL: DIVMTQSPDSLAVSLGERATINCKSSQSLLNSGNQKNYLTWYQQKPGQPPKLLIYWSSTRESGVPDRFSGSGSGTDFTLTISSLQAEDFAVYYCQNDYYYPLTFGGGTKVEIK
modifications: heavy chain variable region of humanized antibody 1E9.2hz41; light chain variable region of humanized antibody 1E9.2hz11/1E9.2hz21/1E9.2hz31/1E9.2hz41
Max MFI [2]: 11.28 ×10^6

B3: 1E9.2-hz31: humanized antibody of 1E9.2; VH SEQ ID NO: 31, VL SEQ ID NO: 33 (antibody, V domains shown)
VH: B2 VH with P61A
VL: B2 VL
modifications: heavy chain variable region of humanized antibody 1E9.2hz31; light chain variable region of humanized antibody 1E9.2hz11/1E9.2hz21/1E9.2hz31/1E9.2hz41
Max MFI [2]: 10.64 ×10^6

B4: 1E9.2-hz21: humanized antibody of 1E9.2; VH SEQ ID NO: 30, VL SEQ ID NO: 33 (antibody, V domains shown)
VH: B2 VH with A49S, P61A
VL: B2 VL
modifications: heavy chain variable region of humanized antibody 1E9.2hz21; light chain variable region of humanized antibody 1E9.2hz11/1E9.2hz21/1E9.2hz31/1E9.2hz41
Max MFI [2]: 14.56 ×10^6

B6: 2C6.9: mouse anti-human Claudin18.2 monoclonal antibody; VH SEQ ID NO: 3, VL SEQ ID NO: 4 (antibody, V domains shown)
VH: QVQLKESGPGLVAPSQSLSITCTVSGFSLTRYGVSWVRQPPGKGLEWLGVIWGDGNTNFHSFLKSRLSISKDSSKSQVFLKLNSLQTDDTATYYCARVNFGNALDYWGQGTSVTVSS
VL: DIVMTQSPSSLTVTAGEEVTMSCKSSQSLLNSGNQKNYLTWYQQKPGQPPKLLIYWASTRDSGVPDRFTGSGSGTDFTLTISSVQSEDLAVYYCQNDFIFPLTFGAGTKLELK
modifications: heavy chain variable region of mouse antibody 2C6.9; light chain variable region of mouse antibody 2C6.9
Max MFI (Max Mean Fluorescence Intensity) [1]: 6.111 ×10^6

B9: 1E9.2: mouse anti-human Claudin18.2 monoclonal antibody; VH SEQ ID NO: 1, VL SEQ ID NO: 2 (antibody, V domains shown)
VH: B2 VH with Q3M, R19K, A40T, G42E, G44R, N84S, A88S, L113S
VL: B6 VL with E18K, A57S, D61E, S86A, F98Y, I99Y, F100Y
modifications: heavy chain variable region of mouse antibody 1E9.2; light chain variable region of mouse antibody 1E9.2
Max MFI (Max Mean Fluorescence Intensity) [1]: 5.085 ×10^6

Continued, values first:

Max MFI (Max Mean Fluorescence Intensity) [1]: 3.501 ×10^6
B1: 19G10.14: mouse anti-human Claudin18.2 monoclonal antibody; VH SEQ ID NO: 52, VL SEQ ID NO: 53 (antibody, V domains shown)
VH: QVQLKESGPGLVAPSQSLSITCTVSGFSFTSYGVHWVRQPPGKGLEWLGVIWAGGSTDYNAALMSRLSIRKDNSKSQVFLKMNSLQIADTAMYYCARDGHGKVGFDVWGAGTTVTVSS
VL: DIVMTQSPSSLSVSAGEKVTMNCKSSQSLLNSGNQKNYLAWYQQKPGQPPKLLIYGASTRESGVPDRFTGGGSGTDFTLTISSVQAEDLAIYYCQNDHFYPFTFGSGTKLEIK
modifications: heavy chain variable region sequence of mouse antibody 19G10.14; light chain variable region sequence of mouse antibody 19G10.14

Max MFI (Max Mean Fluorescence Intensity) [1]: 3.624 ×10^6
B5: 6B9.22: mouse anti-human Claudin18.2 monoclonal antibody; VH SEQ ID NO: 50, VL SEQ ID NO: 51 (antibody, V domains shown)
VH: QVQLQQSGAELVKPGASVKMSCKAFGYTFTSYPIEWMKQNHGKSLEWIGNFHPYNDDTKYNEKFKGKAKLTVEKSSSTVYLELSRLTSDDSAVYYCARTYYGNSFAYWGQGTLVTVSS
VL: B6 VL with E18K, T59S, D66H, S86A, V91F, F98Y, I99F, F100Y, L102F
modifications: heavy chain variable region sequence of mouse antibody 6B9.22; light chain variable region sequence of mouse antibody 6B9.22

Max MFI (Max Mean Fluorescence Intensity) [1]: 4.969 ×10^6
B7: 9C8.1: mouse anti-human Claudin18.2 monoclonal antibody; VH SEQ ID NO: 48, VL SEQ ID NO: 49 (antibody, V domains shown)
VH: QVQLQQSGAELVRPGSSVKISCKASGYAFSNYWMNWVKQRPGQGLEWIGQIYPGDGDTNYNGKFKGKATLTTDKSSSTAYMQLSSLTSEDSAVYFCARLYYGNSFAYWGQGTLVTVSS
VL: B1 VL with S12T, S14T, M21V, N22S, A40T, G56W, G71S, E87A, H98Y, S106G
modifications: heavy chain variable region sequence of mouse antibody 9C8.1; light chain variable region sequence of mouse antibody 9C8.1

Max MFI (Max Mean Fluorescence Intensity) [1]: 5.815 ×10^6
B8: 16A9.11: mouse anti-human Claudin18.2 monoclonal antibody; VH SEQ ID NO: 46, VL SEQ ID NO: 47 (antibody, V domains shown)
VH: EVMLVESGGGLVKPGGSLKLSCAASGFSFSNSAMSWVRQTPEKRLEGVATISSGDSYTYYPDSVKGRFTISRDTAKNSLYLQMSSLRSEDTAVYYCTRQGYGNAMDYWGQGTSVTVSS
VL: B6 VL with E18K, A57S, D61E, S86A, F98Y, I99Y, F100Y
modifications: heavy chain variable region sequence of mouse antibody 16A9.11; light chain variable region sequence of mouse antibody 16A9.11

Max MFI (Max Mean Fluorescence Intensity) [1]: 6.008 ×10^6
B10: 19H11.6: mouse anti-human Claudin18.2 monoclonal antibody; VH SEQ ID NO: 44, VL SEQ ID NO: 45 (antibody, V domains shown)
VH: B8 VH with Y57F, S63T, T74N, S85R, T97A, M105L
VL: B6 VL with E18K, S22T, A57S, D61E, S86A, F98Y, I99Y, F100Y
modifications: heavy chain variable region sequence of mouse antibody 19H11.6; light chain variable region sequence of mouse antibody 19H11.6
